Square brackets hold non-standard residues; d marks the D form. Ends that are not written are not given here. Aib = CC(C)(N)C(=O)O
Biological target: T1, human SR-BI (Homo sapiens, UniProt Q8WTV0)
T1 construct: expressed in transfected cells; host or cells: BHK(SR-BI) cells obtained from the NIH, GeneSwitch System (Invitrogen), induced with 10 nM mifepristone
T1 sequence (Q8WTV0 1-509 isoform Q8WTV0-2): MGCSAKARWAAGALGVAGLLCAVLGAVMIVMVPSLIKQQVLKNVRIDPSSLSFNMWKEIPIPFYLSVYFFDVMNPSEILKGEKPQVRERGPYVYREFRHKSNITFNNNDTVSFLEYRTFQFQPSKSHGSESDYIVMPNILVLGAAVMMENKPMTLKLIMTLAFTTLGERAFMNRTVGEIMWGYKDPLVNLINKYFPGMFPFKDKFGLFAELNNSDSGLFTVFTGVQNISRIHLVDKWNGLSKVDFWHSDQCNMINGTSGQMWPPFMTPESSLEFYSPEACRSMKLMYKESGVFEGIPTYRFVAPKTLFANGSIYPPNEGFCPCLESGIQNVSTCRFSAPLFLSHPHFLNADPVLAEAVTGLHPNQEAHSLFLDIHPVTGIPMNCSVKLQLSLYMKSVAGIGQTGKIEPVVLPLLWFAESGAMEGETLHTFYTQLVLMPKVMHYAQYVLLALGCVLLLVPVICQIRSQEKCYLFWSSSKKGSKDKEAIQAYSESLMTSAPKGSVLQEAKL
Test: DiI uptake from DiI-labeled PALM by BHK(SR-BI) cells, uninduced or mifepristone-induced (SR-BI selectivity)
Format: cell-based
Details: for Induced Uptake: BHK(SR-BI) cells induced with 10 nM mifepristone; for Induced Uptake / Basal Uptake: DiI-labeled PALM 32 μg peptide/ml or DiI-labeled HDL 19 μg protein/ml, 4 hours, ± SEM (n = 4); for SR-BI Dependent Uptake: Increase over basal uptake; for Basal Uptake: uninduced BHK(SR-BI) cells
Protocol: The procedure essentially followed that described in Example 5. A 40 μl aliquot of 10 mM or peptide was combined with 56 μl of 20 mM POPC, 24 μl 20 mM SM(egg) and 16 μl 2.5 mM DiI in a small glass vial. The peptide and lipid stock solutions were prepared in 80% TBA/20% water. The DiI stock was prepared in 92% TBA/8% water. The solution was lyophilized, and the resultant cake was rehydrated by addition of 0.2 ml of Dulbeco's phosphate buffered saline. The solution was briefly swirled, water bath sonicated (for approx. 15 sec.) and placed in a 50° C. heating block for 20 minutes.
SR-BI interaction studies are done with BHK(SR-BI) cells obtained from the NIH. The cells were stably transfected with an inducible human SR-BI gene by means of the GeneSwitch™ System (Invitrogen). The cells were plated (96-well plate) (8000 cells/well) in growth medium (Dulbeco's modified Eagle medium containing 10% fetal bovine serum) containing 200 ug/ml each of zeocin and hygromycin. After 24 hours incubation, the growth medium was removed and replaced with 0.2% bovine serum albumin in Dulbeco's modified Eagle medium. The medium of cells to be induced for SR-BI expression also contained 10 nM mifepristone, added from a DMSO stock solution. DMSO alone was added to the medium of uninduced cells. The induction medium was removed after 24 hours incubation and replaced with medium containing DiI-labeled PALM (32 μg peptide/ml) or DiI-labeled HDL (19 μg protein/ml) (Kalen Biomedical, Montgomery Village, Md.). The test media were prepared by diluting an aliquot of Di-I-labeled PALM (Example 6) or the DiI-labeled HDL in 0.2% bovine serum albumin in Dulbeco's modified Eagle medium. The solutions were passed through 0.2 μm pore size, polyethersulfone, sterilization filters before use. The cells were incubated in test media for 4 hours. Next, the cells were washed 3 times with 0.1% albumin in Dulbeco's phosphate buffered saline (with calcium and magnesium). The last wash was replaced with 200 ul/well of t-butanol/water (95%/5%). The covered plate was left to stand at room temperature for 30 min with occasional shaking. The fluorescence in each well was detected at 520 nm excitation and 580 nm emission with a 550 nm cutoff filter on a […] Gemini fluorescence plate reader, the results are shown in Table 6 and FIG. 7.

“DVFQKLVELFNQLLEKWKQV [SEQ ID NO: 2, amphiphilic peptide used to form PALM]” was tested. Which “Induced Uptake” value did it give?
The value was 12 ± 2 (DiI in cells)/(Total DiI added) × 10^−3.

What about the “SR-BI Dependent Uptake” value of the same substance?
The value was 35%.

What about the “Basal Uptake” value of the same substance?
Its value is 9 ± 2 (DiI in cells)/(Total DiI added) × 10^−3.

How did the “Induced Uptake” value turn out when “DVFQKL{Aib}ELFKELLEKWKQV (DVFQKL[Aib]ELFKELLEKWKQV) [SEQ ID NO: 8, amphiphilic peptide used to form PALM]” was run?
The value was 20 ± 9 (DiI in cells)/(Total DiI added) × 10^−3.

And the “SR-BI Dependent Uptake” value?
Its value is 14%.

What about the “Basal Uptake” value of the same substance?
The value was 17 ± 8 (DiI in cells)/(Total DiI added) × 10^−3.

With “DVFQKL{Aib}ELFNQLLEKWKQV (DVFQKL[Aib]ELFNQLLEKWKQV) [SEQ ID NO: 1, amphiphilic alpha-helical peptide used to form PALM]” as the substance, how does the “Induced Uptake” value read?
The value was 10 ± 1 (DiI in cells)/(Total DiI added) × 10^−3.

And the “SR-BI Dependent Uptake” value?
Its value is 53%.

And the “Basal Uptake” value?
The value was 6 ± 1 (DiI in cells)/(Total DiI added) × 10^−3.

For “DVFQKL{Aib}ELFNQL{Aib}EKFKQV (DVFQKL[Aib]ELFNQL[Aib]EKFKQV) [SEQ ID NO: 6, amphiphilic peptide used to form PALM]”, which “Induced Uptake” value is on record?
Its value is 27 ± 3 (DiI in cells)/(Total DiI added) × 10^−3.

What about the “SR-BI Dependent Uptake” value of the same substance?
The value was 82%.

And the “Basal Uptake” value?
The value was 15 ± 1 (DiI in cells)/(Total DiI added) × 10^−3.

Which “Induced Uptake” value does the source give for “DVFQKL{Aib}ELFNQL{Aib}EKWKQV (DVFQKL[Aib]ELFNQL[Aib]EKWKQV) [SEQ ID NO: 5, amphiphilic peptide used to form PALM]” here?
The value was 16 ± 2 (DiI in cells)/(Total DiI added) × 10^−3.

And the “SR-BI Dependent Uptake” value?
The value was 104%.

What about the “Basal Uptake” value of the same substance?
Its value is 8 ± 1 (DiI in cells)/(Total DiI added) × 10^−3.

What does the source list for “DVFQKL{Aib}ELFQNL{Aib}EKWKQV (DVFQKL[Aib]ELFQNL[Aib]EKWKQV) [SEQ ID NO: 10, amphiphilic peptide used to form PALM]”?
Induced Uptake: 16 ± 2 (DiI in cells)/(Total DiI added) × 10^−3; SR-BI Dependent Uptake: 78%; Basal Uptake: 9 ± 1 (DiI in cells)/(Total DiI added) × 10^−3

Which results are given for “DVFQKL{Aib}ELFQQL{Aib}EKWKQV (DVFQKL[Aib]ELFQQL[Aib]EKWKQV) [SEQ ID NO: 9, amphiphilic peptide used to form PALM]”?
Induced Uptake: 11 ± 2 (DiI in cells)/(Total DiI added) × 10^−3; SR-BI Dependent Uptake: 72%; Basal Uptake: 6 ± 1 (DiI in cells)/(Total DiI added) × 10^−3

For “DV{Aib}QKFLELFNQLLEKWKQV (DV[Aib]QKFLELFNQLLEKWKQV) [SEQ ID NO: 4, amphiphilic peptide used to form PALM]”, which “Induced Uptake” value is on record?
The value was 10 ± 1 (DiI in cells)/(Total DiI added) × 10^−3.

And the “SR-BI Dependent Uptake” value?
Its value is 66%.

What about the “Basal Uptake” value of the same substance?
Its value is 6 ± 1 (DiI in cells)/(Total DiI added) × 10^−3.

With “DV{Aib}QKLFELFNQLLEKWKQV (DV[Aib]QKLFELFNQLLEKWKQV) [SEQ ID NO: 3, amphiphilic peptide used to form PALM]” as the substance, how does the “Induced Uptake” value read?
Its value is 11 ± 2 (DiI in cells)/(Total DiI added) × 10^−3.

And the “SR-BI Dependent Uptake” value?
The value was 79%.

What about the “Basal Uptake” value of the same substance?
The value was 6 ± 1 (DiI in cells)/(Total DiI added) × 10^−3.

With “D{Aib}FQKL{Aib}ELFNQL{Aib}EKWKQV (D[Aib]FQKL[Aib]ELFNQL[Aib]EKWKQV) [SEQ ID NO: 7, amphiphilic peptide used to form PALM]” as the substance, how does the “Induced Uptake” value read?
The value was 18 ± 2 (DiI in cells)/(Total DiI added) × 10^−3.

What about the “SR-BI Dependent Uptake” value of the same substance?
Its value is 137%.

And the “Basal Uptake” value?
Its value is 8 ± 1 (DiI in cells)/(Total DiI added) × 10^−3.

For “PVLDLFRELLNELLEALKQKLK [SEQ ID NO: 11, reference compound]”, which “Induced Uptake” value is on record?
Its value is 5 ± 1 (DiI in cells)/(Total DiI added) × 10^−3.

And the “SR-BI Dependent Uptake” value?
Its value is 55%.

And the “Basal Uptake” value?
Its value is 3 ± 1 (DiI in cells)/(Total DiI added) × 10^−3.
